Measured values as given in publication PMC9054013, “FCHO controls AP2’s initiating role in endocytosis through a PtdIns(4,5)P2-dependent switch” (Science Advances, 2022).
Values joined by “and” are separate entries in the source; they are usually repeats but may differ in a detail not shown here. Equal entries are not always repeated.

Legend:
AP2 core [1] = test: BLI of AP2 core binding to immobilized GST-FCHO linkers; settings: BLI equilibrium analysis, GST-linker on anti-GST biosensors, 25°C, near-physiological conditions, AP2 core closed
Method: Real-time kinetic measurements of AP2 core binding to immobilized GST-FCHO1 linker and GST-FCHO2 linker at 25°C were conducted using an Octet RED96 (Pall FortéBio). AP2 concentrations varied by twofold dilution series (13.5 to 0.8 and 10.0 to 0.2 μM, respectively). Samples and buffers were dispensed into 96-well microtiter plates (Greiner) at a volume of 200 μl per well. Anti-GST biosensors (Pall FortéBio) were incubated in the specific assay buffer for at least 30 min before loading with the appropriate GST-FCHO linker for 5 min, followed by blocking with GST-ARRS control for 10 min. Negative controls were analyzed with biosensors uniquely loaded with the GST-ARRS control. Every binding experiment consisted of three steps: incubation for 10 min in the specific assay buffer, followed by 15 min of incubation with AP2 in the same buffer (association phase), and then by 10 min of incubation with the same buffer without AP2 to measure AP2 off rate (dissociation phase). […]
Data were processed with the Octet Data Acquisition 7.0 software, individually fitted using ForteBio Analysis software 7.0, and subsequently further analyzed with the PRISM software (GraphPad) to determine equilibrium dissociation constants (KD). The maximum binding capacity of each biosensor was scaled with respect to each other, according to the molecular weight of the AP2 analyzed.

AP2 core [2] = test: Liposome spin-downs / GSH Sepharose pull-down of AP2 core with GST-FCHO2 linker; type: biochemical; settings: for increase in steady-state efficiency of AP2 membrane recruitment: GST-FCHO2 vs GST-ARRS control, densitometry, 3 independent experiments
Method: GST-FCHO2 WT linker or a nonbinding control (GST-ARRS control) at a final concentration of 30 μM was incubated at 4°C for 30 min with AP2 core at a concentration of 2.5 μM, in 95% HKT buffer with lysozyme (0.2 mg/ml) as a “carrier,” AEBSF (25 μg/ml), and 5 mM DTT. Core buffer (contributed by the purified AP2) was restricted to 5% of the volume. The mixture was then centrifuged briefly to remove any insoluble material. Samples were removed and added to either an equal volume of liposomes [containing phosphatidylcholine (PC)/phosphatidylethanolamine (PE), PC/PE/PS/PtdIns(4,5)P2, or PC/PE/PS/ PtdIns(4,5)P2/TGN38] or an equal bed volume of GSH Sepharose beads prewashed into HKT buffer. Final concentrations were therefore 15 μM (GST-FCHO2/ARRS) and 1.25 μM AP2. The mixtures were incubated for 30 min at 21°C with continuous gentle inversion, then the liposomes were pelleted by centrifugation, supernatants were removed, and the pellets resuspended in an equal volume before the addition of SDS loading dye and analysis by SDS-PAGE. The GSH Sepharose beads were washed three times with 1 ml of HKT supplemented with lysozyme (0.2 mg/ml), AEBSF (25 μg/ml), and 5 mM DTT, then resuspended in the same buffer, and analyzed by SDS-PAGE. All experiments were done in triplicate.

| Molecule | Kd (AP2 core [1]) | ratio of FCHO2:AP2 on beads relative to PtdIns(4,5)P2-containing liposomes (AP2 core [2]; GST-FCHO2 linker 15 μM, AP2 core 1.25 μM, three independent experiments) | increase in steady-state efficiency of AP2 membrane recruitment (AP2 core [2]; PtdIns(4,5)P2-only liposomes) | increase in steady-state efficiency of AP2 membrane recruitment (AP2 core [2]; liposomes containing both PtdIns(4,5)P2 and cargo) |
| --- | --- | --- | --- | --- |
| FCHO1 linker: FCHO1 interdomain linker wt (N123C), residues 316 to 444, GST fusion (protein, left off: GST, end not stated, kept, FCHO1 interdomain linker wt (N123C), residues 316 to 444, GST fusion) TCPEVDEEGFTVRPDVTQNSTAEPSRFSSSDSDFDDEEPRKFYVHIKPAPARAPACSPEAAAAQLRATAGSLILPPGPGGTMKRHSSRDAAGKPQRPRSAPRTSSCAERLQSEEQVSKNLFGPPLESAF | ~10 µM and 8.5 µM | – | – | – |
| FCHO2 linker: FCHO2 interdomain linker wt, residues 314 to 444, GST fusion (protein, left off: GST, end not stated, kept, FCHO2 interdomain linker wt, residues 314 to 444, GST fusion) NIPDVDEEGYSIKPETNQNDTKENHFYSSSDSDSEDEEPKKYRIEIKPMHPNNSHHTMASLDELKVSIGNITLSPAISRHSPVQMNRNLSNEELTKSKPSAPPNEKGTSDLLAWDPLFGPSLDSSSSSSLT | ~10 µM and 9.8 µM | ~ 20 fold | ~ 13% | ~ 22% |
